The test concerns the target SARS-CoV-2 spike protein, extracellular domain (1-1213), recombinant from HEK293 cells (SARS-CoV-2) (UniProt P0DTC2).

In general, Kd refers to a measure of binding affinity in units of concentration. As a reminder, the koff is a measure of how fast the partners let go of each other. In general, kon refers to the rate constant with which the complex forms. Consider “HZI 2-09 (Anlec in TBS; lectin batch isolated from bromelain)”, for which the Kd stood at 8.25 µM, the koff worked out at 0.003 s⁻¹ and the kon came to 331 M⁻¹ s⁻¹.

(Values after US20240216484A1.)
